Test results reported in patent publication US20240270846A1 (published 2024).

Biological target: T1, CD3 epsilon homodimer protein (UniProt P07766 23-126)
T1 construct: also called CD3 (CD3 epsilon)
Test: SPR (Biacore T200), CD3e homodimer on CM4 chip, antibody as analyte; KD ratio vs unaltered GLS3000;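 note: CD3 epsilon homodimer amine-coupled to the sensor surface, antibodies injected as analyte at 25 °C with HBS-EP+ running buffer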

T1 sequence (P07766 23-126): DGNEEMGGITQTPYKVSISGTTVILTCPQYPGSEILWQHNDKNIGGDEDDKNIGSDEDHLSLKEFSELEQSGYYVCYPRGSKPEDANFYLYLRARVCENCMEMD

KD ratio to GLS3000 | Binder
4.1 ratio | CE115HA000/GLS3000 H34K one-arm antibody (antibody, human IgG1, kappa, L234A L235A, N297A, name in Kabat numbering, one-arm IgG1) heavy: QVQLVESGGGVVQPGRSLRLSCAASGFTFSNAWMHWVRQAPGKGLEWVAQIKAKSNNYATYYAESVKGRFTISRDDSKNSLYLQMNSLKTEDTAVYYCRYVHYGAYYGVDAWGQGTTVTVSSASTKGPSVFPLAPSSKSTSGGTAALGCLVKDYFPEPVTVSWNSGALTSGVHTFPAVLQSSGLYSLSSVVTVPSSSLGTQTYICNVNHKPSNTKVDKKVEPKSCDKTHTCPPCPAPEAAGGPSVFLFPPKPKDTLMISRTPEVTCVVVDVSHEDPEVKFNWYVDGVEVHNAKTKPREEQYASTYRVVSVLTVLHQDWLNGKEYKCKVSNKALPAPIEKTISKAKGQPREPQVYTLPPSRCELTKNQVSLSCAVKGFYPSDIAVEWESNGQPENNYKTTPPVLDSDGSFFLVSKLTVDKSRWQQGNVFSCSVMHEALHNHYTQKSLSLSPDYKDDDDK EPKSSDKTHTCPPCPAPELLGGPSVFLFPPKPKDTLMISRTPEVTCVVVDVSHEDPEVKFNWYVDGVEVHNAKTKPREEQYNSTYRVVSVLTVLHQDWLNGKEYKCKVSNKALPAPIEKTISKAKGQPREPQVCTLPPSRDELTKNQVSLWCLVKGFYPSDIAVEWESNGQPENNYKTTPPVLDSDGSFFLYSKLTVDKSRWQQGNVFSCSVMHEALHNRYTQKSLSLSP light: DIVMTQSPLSLPVTPGEPASISCRSSQSLVHSNRNTYLKWYQQKPGQAPRLLIYKVSNRFSGVPDRFSGSGSGTDFTLKISRVEAEDVGVYYCGQGTQVPYTFGQGTKLEIKRTVAAPSVFIFPPSDEQLKSGTASVVCLLNNFYPREAKVQWKVDNALQSGNSQESVTEQDSKDSTYSLSSTLTLSKADYEKHKVYACEVTHQGLSSPVTKSFNRGEC
1.03 ratio | CE115HA000/GLS3000 H34L one-arm antibody (antibody, human IgG1, kappa, L234A L235A, N297A, name in Kabat numbering, one-arm IgG1) heavy: QVQLVESGGGVVQPGRSLRLSCAASGFTFSNAWMHWVRQAPGKGLEWVAQIKAKSNNYATYYAESVKGRFTISRDDSKNSLYLQMNSLKTEDTAVYYCRYVHYGAYYGVDAWGQGTTVTVSSASTKGPSVFPLAPSSKSTSGGTAALGCLVKDYFPEPVTVSWNSGALTSGVHTFPAVLQSSGLYSLSSVVTVPSSSLGTQTYICNVNHKPSNTKVDKKVEPKSCDKTHTCPPCPAPEAAGGPSVFLFPPKPKDTLMISRTPEVTCVVVDVSHEDPEVKFNWYVDGVEVHNAKTKPREEQYASTYRVVSVLTVLHQDWLNGKEYKCKVSNKALPAPIEKTISKAKGQPREPQVYTLPPSRCELTKNQVSLSCAVKGFYPSDIAVEWESNGQPENNYKTTPPVLDSDGSFFLVSKLTVDKSRWQQGNVFSCSVMHEALHNHYTQKSLSLSPDYKDDDDK EPKSSDKTHTCPPCPAPELLGGPSVFLFPPKPKDTLMISRTPEVTCVVVDVSHEDPEVKFNWYVDGVEVHNAKTKPREEQYNSTYRVVSVLTVLHQDWLNGKEYKCKVSNKALPAPIEKTISKAKGQPREPQVCTLPPSRDELTKNQVSLWCLVKGFYPSDIAVEWESNGQPENNYKTTPPVLDSDGSFFLYSKLTVDKSRWQQGNVFSCSVMHEALHNRYTQKSLSLSP light: DIVMTQSPLSLPVTPGEPASISCRSSQSLVHSNRNTYLLWYQQKPGQAPRLLIYKVSNRFSGVPDRFSGSGSGTDFTLKISRVEAEDVGVYYCGQGTQVPYTFGQGTKLEIKRTVAAPSVFIFPPSDEQLKSGTASVVCLLNNFYPREAKVQWKVDNALQSGNSQESVTEQDSKDSTYSLSSTLTLSKADYEKHKVYACEVTHQGLSSPVTKSFNRGEC
